Seven molecules from patent US12310324B2, “Compositions and methods for minimizing nornicotine synthesis in tobacco” (North Carolina State University, priority 2010, dated 2025) can be followed below.

Marks after values point to notes of the source that are not given here.

The subject of one data set is CN1CCC[C@H]1c1cccnc1. Briefly: Nicotine demethylase assay, yeast microsomal membrane preparations incubated with [^14C]-nicotine, products resolved by thin layer chromatography. The format is biochemical, Nicotiana tabacum. The note with it: other: substrate saturation curve across a wide range of [^14C]-nicotine concentrations; microsomes from yeast strain W(R) expressing CYP82E10 cDNA. An excerpt: (§1) To determine whether CYP82E10 functions as a nicotine demethylase gene, its cDNA was cloned into the yeast expression vector pYeDP60 and transformed into yeast strain W(R). Strain W(R) is a yeast cell line that was engineered to overexpress the yeast NADPH-dependent P450 reductase, an enzyme that serves as the direct electron donor to P450s; this system greatly enhances the detection of foreign P450 enzyme activities that are expressed in yeast (Pompon et al., 1995). Nicotine demethylase assays were conducted by incubating yeast microsomal membrane preparations with [^14C]-nicotine, and resolving the products by thin layer chromatography as described in Siminszky et al. (2005).

For data set [1], the system named is CYP82E10 nicotine demethylase. The format is cell-based, tobacco. The note with it: cultures shaken overnight with 55 μM [14C]-nicotine, methanol extract, TLC. The procedure:
Nicotine demethylase activities of wild type and 1041 mutant CYP82E10-expressing yeast cells was also assayed in vivo.

For data set [2], the system named is CYP82E10 nicotine demethylase. Description: Nicotine demethylase assay, yeast microsomal membranes with [14C]-nicotine, CYP82E10 and variants. The format is biochemical, tobacco. Conditions: at the 25 μM substrate level.
The subject of data set [3] is CYP82E10 nicotine demethylase. The data set is described as above. Format: biochemical, tobacco.
Text: as §1
The nucleotide and amino acid residues mutated in these plants are also highlighted in FIG. 1. Although no truncation mutations were observed among these individuals, in several cases, mutations were identified that altered an amino acid residue within a highly conserved region of the enzyme. To determine the effects of a particular mutation on CYP82E10 enzyme activity, site-directed mutagenesis was used to introduce the specific mutations corresponding to seven of the nine mutations shown in Table 2 into the CYP82E10 cDNA within the pYeDP60 yeast expression vector. Microsomal preparations from yeast strains expressing each of the seven CYP82E10 variants were assayed in vitro for nicotine demethylase activity using both non-saturating (2.45 μM) and saturating (50 μM) concentrations of [^14C]-nicotine.

Data set [4] concerns CYP82E4v2 nicotine demethylase. Format: biochemical, tobacco. Conditions: counts per minute of [14C]-nornicotine/mg microsomal protein; ± SD of two technical replications.
Text: as §1
The thin layer chromatographic data for the in vitro yeast expression assays corresponding to the plant 1041 mutation are shown in FIG. 3. This particular mutation was selected for more extensive investigation. To provide additional confirmation that the Pro to Ser substitution at amino acid position 381 that defines the plant 1041 mutation is incompatible with nicotine demethylation function, this same mutation was introduced into a CYP82E4v2 cDNA that had been similarly cloned into the pYeDP60 vector. […] Whether introduced into the CYP82E10 or CYP82E4v2 enzymes, a Ser substitution for Pro at position 381 leads to the complete ablation of nicotine demethylase activity in this assay.

For data set [5], the system named is CYP82E4 nicotine demethylase.
For data set [6], the system named is CYP82E5 nicotine demethylase. Briefly: Nicotine demethylase activity of CYP82E5 variants (method not described). The format is biochemical, tobacco.
Where [7] appears, read: counts per minute of [14C]-nornicotine/mg microsomal protein, ± SD of two technical replications.

As to “Nicotiana tabacum CYP82E10 nicotine demethylase, wild type, SEQ ID NO:2 (Nicotiana tabacum)”, the Km with CN1CCC[C@H]1c1cccnc1 turned out to be 3.9 µM.

B1: CYP82E10: wild type root-specific tobacco nicotine demethylase (cytochrome P450) expressed in yeast (protein, listed as Nicotiana tabacum)
chain: MVSPVEAIVGLVTLTLLFYFIRTKKSQKPSKPLPPKIPGGWPVIGHLFYFDDDSDDRPLARKLGDLADKYGPVFTFRLGLPLVLVVSSYEAIKDCFSTNDAIFSNRPAFLYGEYLGYNNAMLFLTKYGPYWRKNRKLVIQEVLCASRLEKLKHVRFGEIQTSIKNLYTRIDGNSSTINLTDWLEELNFGLIVKMIAGKNYESGKGDEQVERFRKAFKDFIILSMEFVLWDAFPIPLFKWVDFQGHVKAMKRTFKDIDSVFQNWLEEHVKKKEKMEVNAEGNEQDFIDVVLSKMSNEYLDEGYSRDTVIKATVFSLVLDAADTVALHMNWGMALLINNQHALKKAQEEIDKKVGKDRWVEESDIKDLVYLQTIVKEVLRLYPPGPLLVPHENVEDCVVSGYHIPKGTRLFANVMKLQRDPKLWSNPDKFDPERFFAADIDFRGQHYEFIPFGSGRRSCPGMTYAMQVEHLTIAHLIQGFNYKTPNDEPLDMKEGAGLTIRKVNPIEVVITPRLTPELY
Turning to B1, the “nornicotine detected in extracts of yeast” value in data set [1] is given as “could be detected”. Besides, the “rate of [14C]-nornicotine synthesis relative to preparations containing CYP82E4v2” value in data set [2] was “nearly three times greater”. In addition, in data set [3] (setting [7]), the “CPM nornicotine at 2.45 μM [14C]-nicotine substrate” value (“CPM nornicotine at 2.45 μM” below) is listed as 2,296 ± 99 ^ CPM and the “CPM nornicotine at 50.0 μM [14C]-nicotine substrate” value (“CPM nornicotine at 50.0 μM” below) was 15,253 ± 465 CPM. For the same molecule, the “nicotine demethylase (enzyme) activity, result in words” value in data set [3] (yeast microsomes, [14C]-nicotine) is reported as “very robust nicotine demethylase activity”.

B2: pYeDP60-CYPE4v2/1041: CYP82E4v2 enzyme possessing the 1041 mutation (Pro381Ser) (protein, listed as Nicotiana tabacum)
chain: MLSPIEAIVGLVTFTFLFFFLWTKKSQKPSKPLPPKIPGGWPVIGHLFHFNDDGDDRPLARKLGDLADKYGPVFTFRLGLPLVLVVSSYEAVKDCFSTNDAIFSNRPAFLYGDYLGYNNAMLFLANYGPYWRKNRKLVIQEVLSASRLEKFKHVRFARIQASIKNLYTRIDGNSSTINLTDWLEELNFGLIVKMIAGKNYESGKGDEQVERFKKAFKDFMILSMEFVLWDAFPIPLFKWVDFQGHVKAMKRTFKDIDSVFQNWLEEHINKREKMEVNAEGNEQDFIDVVLSKMSNEYLGEGYSRDTVIKATVFSLVLDAADTVALHINWGMALLINNQKALTKAQEEIDTKVGKDRWVEESDIKDLVYLQAIVKEVLRLYPSGPLLVPHENVEDCVVSGYHIPKGTRLFANVMKLQRDPKLWSDPDTFDPERFIATDIDFRGQYYKYIPFGSGRRSCPGMTYALQVEHLTMAHLIQGFNYRTPNDEPLDMKEGAGITIRKVNPVELIIAPRLAPELY
modifications: CYP82E4 P382S Variant
Take B2: in data set [4], the “CPM nornicotine at 2.45 μM” value is on record as “Not detected” and the “CPM nornicotine at 50.0 μM” value is reported as “Not detected”. Moreover, the “inhibition of nicotine demethylase activity (knocked out)” value (“inhibition” below) in data set [5] was found to be 100%.

B3: CYP82E4 P458S: CYP82E4 variant with serine for proline at position 458 (protein, listed as Nicotiana tabacum)
chain: MLSPIEAIVGLVTFTFLFFFLWTKKSQKPSKPLPPKIPGGWPVIGHLFHFNDDGDDRPLARKLGDLADKYGPVFTFRLGLPLVLVVSSYEAVKDCFSTNDAIFSNRPAFLYGDYLGYNNAMLFLANYGPYWRKNRKLVIQEVLSASRLEKFKHVRFARIQASIKNLYTRIDGNSSTINLTDWLEELNFGLIVKMIAGKNYESGKGDEQVERFKKAFKDFMILSMEFVLWDAFPIPLFKWVDFQGHVKAMKRTFKDIDSVFQNWLEEHINKREKMEVNAEGNEQDFIDVVLSKMSNEYLGEGYSRDTVIKATVFSLVLDAADTVALHINWGMALLINNQKALTKAQEEIDTKVGKDRWVEESDIKDLVYLQAIVKEVLRLYPPGPLLVPHENVEDCVVSGYHIPKGTRLFANVMKLQRDPKLWSDPDTFDPERFIATDIDFRGQYYKYIPFGSGRRSCSGMTYALQVEHLTMAHLIQGFNYRTPNDEPLDMKEGAGITIRKVNPVELIIAPRLAPELY
modifications: CYP82E4 P458S Variant
Regarding B3, the “inhibition” value in data set [5] was found to be 100%.

B4: pYeDP60-CYPE4v2: wild type senescence-induced tobacco nicotine demethylase CYP82E4v2 expressed in yeast (protein, listed as Nicotiana tabacum)
chain: MLSPIEAIVGLVTFTFLFFFLWTKKSQKPSKPLPPKIPGGWPVIGHLFHFNDDGDDRPLARKLGDLADKYGPVFTFRLGLPLVLVVSSYEAVKDCFSTNDAIFSNRPAFLYGDYLGYNNAMLFLANYGPYWRKNRKLVIQEVLSASRLEKFKHVRFARIQASIKNLYTRIDGNSSTINLTDWLEELNFGLIVKMIAGKNYESGKGDEQVERFKKAFKDFMILSMEFVLWDAFPIPLFKWVDFQGHVKAMKRTFKDIDSVFQNWLEEHINKREKMEVNAEGNEQDFIDVVLSKMSNEYLGEGYSRDTVIKATVFSLVLDAADTVALHINWGMALLINNQKALTKAQEEIDTKVGKDRWVEESDIKDLVYLQAIVKEVLRLYPPGPLLVPHENVEDCVVSGYHIPKGTRLFANVMKLQRDPKLWSDPDTFDPERFIATDIDFRGQYYKYIPFGSGRRSCPRMTYALQVEHLTMAHLIQGFNYRTPNDEPLDMKEGAGITIRKVNPVELIIAPRLAPELY
Turning to B4, in data set [4], the “CPM nornicotine at 2.45 μM” value is 1,813 ± 623^b CPM and the “CPM nornicotine at 50.0 μM” value is recorded as 5,383 ± 505 CPM.

B5: CYP82E5 P449L: CYP82E5 variant with leucine for proline at position 449 (protein, listed as Nicotiana tabacum)
chain: MVSPVEAIVGLVTLTLLFYFLWPKKFQIPSKPLPPKIPGGWPVIGHLFYFDDDGDDRPLARKLGDLADKYGPVFTFRLGLPLVLVVSSYEAVKDCFSTNDAIFSNRPAFLYGEYLGYSNAMLFLTKYGPYWRKNRKLVIQEVLSASRLEKLKHVRFGKIQTSIKSLYTRIDGNSSTINLTDWLEELNFGLIVKMIAGKNYESGKGDEQVERFRKAFKDFIILSMEFVLWDAFPIPLFKWVDFQGHVKAMKRTFKDIDSVFQNWLEEHVKKREKMEVNAQGNEQDFIDVVLSKMSNEYLDEGYSRDTVIKATVFSLVLDAADTVALHMNWGMALLINNQHALKKAQEEIDKKVGKERWVEESDIKDLVYLQAIVKEVLRLYPPGPLLVPHENVEDCVVSGYHIPKGTRLFANVMKLQRDPKLWSNPDKFDPERFFADDIDYRGQHYEFILFGSGRRSCPGMTYALQAEHLTIAHLIQGFNYKTPNDEPLDMKEGAGLTIRKVNPVEVTITARLAPELY
modifications: CYP82E5 P449L
Take B5: the “effect of mutation on nicotine demethylase activity, in words” value in data set [6] is listed as “inhibition of its nicotine demethylase activity”.

B6: SEQ ID NO:33: CYP82E5 variant with stop codon for tryptophan at position 422 (protein, listed as Nicotiana tabacum)
chain: MVSPVEAIVGLVTLTLLFYFLWPKKFQIPSKPLPPKIPGGWPVIGHLFYFDDDGDDRPLARKLGDLADKYGPVFTFRLGLPLVLVVSSYEAVKDCFSTNDAIFSNRPAFLYGEYLGYSNAMLFLTKYGPYWRKNRKLVIQEVLSASRLEKLKHVRFGKIQTSIKSLYTRIDGNSSTINLTDWLEELNFGLIVKMIAGKNYESGKGDEQVERFRKAFKDFIILSMEFVLWDAFPIPLFKWVDFQGHVKAMKRTFKDIDSVFQNWLEEHVKKREKMEVNAQGNEQDFIDVVLSKMSNEYLDEGYSRDTVIKATVFSLVLDAADTVALHMNWGMALLINNQHALKKAQEEIDKKVGKERWVEESDIKDLVYLQAIVKEVLRLYPPGPLLVPHENVEDCVVSGYHIPKGTRLFANVMKLQRDPKL
modifications: CYP82E5 W422Stop Variant
For B6, the “inhibition” value in data set [6] is given as 100%.
